Test results reported in article PMC4444369 (Journal of molecular biology, 2014).

Biological target: APC3 (wild-type, untagged) (human, UniProt P30260-2 1-830)
Test: SEC

B1: APC16^C (Strep tag removed by TEV) (domain or fragment)
chain: not shown
B1: binds.
